Measurements taken from patent publication US20160083733A1, “NOVEL TREATMENT OF METABOLIC DISEASES” (UNIVERSITY OF BREMEN, priority 2013, published 2016).

How the values were obtained:
INS-1E cells = assay: Apoptotic markers, cytochrome c release and PDX1 in INS-1E cells under diabetogenic conditions; type: cell-based, rat; details: 33.3 mM glucose for 48 h, overexpression of dnMST1
Text: (§1) Human islets were isolated from twenty pancreases of healthy organ donors and from five with T2D at the University of Illinois at Chicago or Lille University and cultured on extracellular matrix (ECM) coated dishes (Novamed, Jerusalem, Israel) as described previously (Schulthess et al., Cell. Metab. 9 (2009) 125-139). Islet purity was greater than 95% as judged by dithizone staining (if this degree of purity was not achieved by routine isolation, islets were handpicked). Islets from MST1^−/− mice and their WT littermates were isolated as described previously (Schulthess et al., Cell. Metab. 9 (2009) 125-139). […]
At the end of the incubation periods, islets and INS1E cells were washed in ice-cold PBS and lysed in lysis buffer containing 20 mM Tris acetate, 0.27 M sucrose, 1 mM EDTA, 1 mM EGTA, 50 mM NaF, 1% Triton X-100, 5 mM sodium pyrophosphate and 10 mM β-glycerophosphate. […] Protein concentrations were determined with the BCA protein assay (Pierce). […] Membrane was developed using a chemiluminescence assay system (Pierce) and analyzed using DocIT®LS image acquisition 6.6a (UVP BioImaging Systems, Upland, Calif., USA). […]

PDX1 = PDX1 protein level, degradation and ubiquitination in HEK293 cells co-transfected with MST1; type: cell-based, mouse; details: co-transfection with PDX1 in HEK293 cells
Text: pCMV-myc-MST1 and kinase-dead (MST1-K59; dnMST1) are described in Yamamoto et al., J. Clin. Invest. 111 (2003), 1463-1474. Mouse pB.RSV.PDX1-GFP is described in Kawamori et al., Diabetes 52 (2003) 2896-2904. pcDNA3 Myr-HA Akt1, HA-Ubiquitin and pCDNA3 Jnk1a1 (apf)(dn-JNK) plasmids were obtained from Addgene (Cambridge, Mass.). Mouse PDX1 mutants (T11, T126, T152, T155, T214 and T231) in pCGIG5 vector were generated by site-directed mutagenesis as described previously (Frogne et al., 7 (2012), e35233). All mutations were verified by sequencing. To make bacterial expression plasmids for PDX1 mutants, the complete mouse PDX1 CDS (wild type and mutants) has been amplified by PCR using a specific set of primers from pCGIG5 plasmids and cloned into a pGEX-6P-1 bacterial expression vector. The rat insulin driven luciferase vector (RIP-Luc) was constructed by subcloning a 700 by fragment containing −660 bp of the rat 2 insulin promoter into a pMCS-Green-Renilla-Luc vector (Thermo Scientific). pCMV-Red firefly Luc vector was obtained from Thermo Scientific.
HEK293 cells were cultured in 10-cm cell culture dishes and transfected with HA-ubiquitin, PDX1 and MST1 expression plasmids for 48 h. For ubiquitination in human islets, 5000 islets per condition were transfected with ubiquitin plasmid. After 24 h, islets were infected with Ad-GFP or Ad-MST1 for 6 h and kept for another 48 h. […]

human islets = assay: MST1 overexpression (Ad-MST1)-induced apoptosis in human islets; type: cell-based; details: Ad-MST1 48 h
Text: as §1
Pancreatic tissues were processed as previously described (Shu et al., Diabetes 57 (2007), 645-53). […] Slides were mounted with Vectashield with 4′6-diamidino-2-phenylindole (DAPI) (Vector Labs). β-cell apoptosis for mouse sections or primary islets cultured on ECM dishes was analyzed by the terminal deoxynucleotidyl transferase-mediated dUTP nick-end labeling (TUNEL) technique according to the manufacturer's instructions (In Situ Cell Death Detection Kit, TMR red; Roche) and double stained for insulin. Fluorescence was analyzed using a Nikon MEA53200 (Nikon GmbH, Dusseldorf, Germany) microscope and images were acquired using NIS-Elements software (Nikon). […]

B1: dnMST1: kinase-dead, dominant negative MST1 mutant (K59R) expressed from plasmid (protein, UniProt Q13043 1-487, looked up, variant K59R)
Serine/threonine-protein …: METVQLRNPPRRQLKKLDEDSLTKQPEEVFDVLEKLGEGSYGSVYKAIHKETGQIVAIRQVPVESDLQEIIKEISIMQQCDSPHVVKYYGSYFKNTDLWIVMEYCGAGSVSDIIRLRNKTLTEDEIATILQSTLKGLEYLHFMRKIHRDIKAGNILLNTEGHAKLADFGVAGQLTDTMAKRNTVIGTPFWMAPEVIQEIGYNCVADIWSLGITAIEMAEGKPPYADIHPMRAIFMIPTNPPPTFRKPELWSDNFTDFVKQCLVKSPEQRATATQLLQHPFVRSAKGVSILRDLINEAMDVKLKRQESQQREVDQDDEENSEEDEMDSGTMVRAVGDEMGTVRVASTMTDGANTMIEHDDTLPSQLGTMVINAEDEEEEGTMKRRDETMQPAKPSFLEYFEQKEKENQINSFGKSVPGPLKNSSDWKIPQDGDYEFLKSWTVEDLQKRLLALDPMMEQEIEEIRQKYQSKRQPILDAIEAKKRRQQNF
glucose-induced caspase-3 and PARP cleavage (INS-1E cells): completely inhibited
PDX1 level (PDX1): no effect

B2: dnJNK1: dominant negative mutant of JNK1 expressed from plasmid pCDNA3 Jnk1a1 (apf) (protein, UniProt P45983 1-427, looked up, variant T183A Y185F)
Mitogen-activated protein …: MSRSKRDNNFYSVEIGDSTFTVLKRYQNLKPIGSGAQGIVCAAYDAILERNVAIKKLSRPFQNQTHAKRAYRELVLMKCVNHKNIIGLLNVFTPQKSLEEFQDVYIVMELMDANLCQVIQMELDHERMSYLLYQMLCGIKHLHSAGIIHRDLKPSNIVVKSDCTLKILDFGLARTAGTSFMMAPFVVTRYYRAPEVILGMGYKENVDLWSVGCIMGEMVCHKILFPGRDYIDQWNKVIEQLGTPCPEFMKKLQPTVRTYVENRPKYAGYSFEKLFPDVLFPADSEHNKLKASQARDLLSKMLVIDASKRISVDEALQHPYINVWYDPSEAEAPPPKIPDKQLDEREHTIEEWKELIYKEVMDLEERTKNGVIRGQPSPLGAAVINGSQHPSSSSSVNDVSSMSTDPTLASDTDSSLEAAAGPLGCCR
MST1-induced increase in Bim and subsequent caspase-3 cleavage (human islets): prevented
